Molecular target: FasRLVL triple mutant (Leu106, Val163 and Leu185 to phenylalanine) (Mycobacterium tuberculosis) (UniProt O05858)
Assay: SEC

FasRLVL triple mutant (Leu106, Val163 and Leu185 to phenylalanine) (from UniProt O05858 1-228) (natural protein)
percent eluting as a monomer: < 50% | percent eluting as the wild-type protein (dimer): > 50% | stoichiometry N: 2
